The supplement of paper PMC12667976

B1: library; numbered along this chain (parent)
chain: MATDAALRRLLRLHRTEIAVAVDSAFPLLHALADHDVVPEDKFQETLHLKEKEGCPQAFHALLSWLLTQDSTAILDFWRVLFKDYNLERYGRLQPILDSFPKDVDLSQPRKGRKPPAVPKALVPPPRLPTKRKASEEARAAAPAALTPRGTASPGSQLKAKPPKKPESSAEQQRLPLGNGIQTMSASVQRAVAMSSGDVPGARGAVEGILIQQVFESGGSKKCIQVGGEFYTPSKFEDSGSGKNKARSSSGPKPLVRAKGAQGAAPGGGEARLGQQGSVPAPLALPSDPQLHQKNEDECAVCRDGGELICCDGCPRAFHLACLSPPLREIPSGTWRCSSCLQATVQEVQPRAEEPRPQEPPVETPLPPGLRSAGEEVRGPPGEPLAGMDTTLVYKHLPAPPSAAPLPGLDSSALHPLLCVGPEGQQNLAPGARCGVCGDGTDVLRCTHCAAAFHWRCHFPAGTSRPGTGLRCRSCSGDVTPAPVEGVLAPSPARLAPGPAKDDTASHEPALHRDDLESLLSEHTFDGILQWAIQSMARPAAPFPS

Variants of: B1
Assay: AIRE transcriptional activation functional score (insulin promoter-GFP; nonsense median 0, synonymous median 1) (normalised score); higher = higher AIRE activity (more reporter activation)
Conditions: with insulin promoter-GFP reporter in HEK293
Procedure, shortened: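 Using Bxb1 recombinase, codon-optimized NNN-codon libraries for three AIRE regions were inserted into Flp-In T-REx HEK293 landing-pad cells with an insulin core promoter-GFP reporter. After integrants (mCherry+, BFP−) were sorted at day 7 and expanded for 7 days, the top 10% GFP and unselected integrant populations underwent tile-sequencing. Functional scores are wild-type-subtracted enrichments of variants in select over non-select samples. A cutoff of 10 counts per million in non-select applied, and values were rescaled (nonsense median 0, synonymous median 1) and averaged over biological replicates.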

AIRE transcriptional activation functional score: each site, then its substitutions
H523: Q 0.954; G 1.65; L 0.222; S 1.25; I 0.286; Y 1.33; K 0.199; N 1.28; T 1.37
G527: K 0.173; H 0.494; N 0.999; R 0.305; W 0.875; L 0.0948; A 0.391; I 1.02; V 0.0961; F -0.224; C 0.656; M 0.725; S 0.639
L520: F 0.794; I 1.23; A 0.276; K 0.452; D 0.849; R 0.181; E 0.103; C 0.467; H 0.344; Q 0.36; S -0.11; G 0.375; T 0.23; P -0.00959; V 0.478
I533: W 0.193; H 0.217; M 1.13; V 0.411; Q 0.144; E -0.386; T 0.516; N -0.116; D 0.569; Y 0.199; S 0.404; L 0.274; G 0.261; C 0.256; R 0.266
D526: A 0.225; G 0.346; C -0.576; F 0.421; Y 1.02; E 0.925; K 0.177; S -0.0693; T -0.207; I 0.298; V -0.011; R -0.505; P -0.403; W -0.427; N 0.21; L -0.764
F525: T -0.259; N -0.231; C 0.0978; I 0.367; S -0.595; D 0.0868; G 0.0436; H -0.0452; E -1.43; R -0.845; P 0.141; A 0.406; Y 0.369; L 0.45; V 0.609; Q -0.479
L519: V 0.315; F 0.808; A 0.739; S 0.255; M 0.992; C 0.313; H -0.138; Y 1.11; W 0.904; R 0.267; E 0.874; N -0.347; D 0.255; Q 0.698; T 0.239; I 0.439; P 0.517; G 0.259
E522: V 0.236; C 0.0951; S 0.0236; L -0.299; K 0.503; Q 1.03; W -1.23; R -0.0906; A -0.0825; D 0.925; G 0.352; F 0.252; I 0.133; T -0.656
T524: S 1.61; Q 0.0994; L -0.065; A 0.636; I 0.0345; P 0.528; V 0.353; W 0.629; G 0.619; M -0.346; K 0.256; R 0.214; H -0.0688; C 1.47; F 0.0783; Y 1.4
S518: Q 1.77; P 0.384; I 0.907; V 1.12; T 1.51; L 1.04; N 0.216; K 1.27; Y 1.3; W 0.848; R 0.342
R538: N -0.187; A 0.19; W 1.54; S 0.733; I 1.65; G 0.544; K 1.18; M 1.05; L 1.52; T 0.72
S521: L 0.969; N 0.923; V 0.258; I 0.551; A 0.824; K -0.211; T 1.08; Q 0.377; G 0.548; W 0.299; F 0.695; C 0.241; R 0.245; M 0.76
